Test results: patent US8586538B2, “Method of treating a patient suffering from a bleeding disorder comprising administering an antibody against the A3-C1 of FVIII” (Stichting Sanquin Bloedvoorziening, priority 2002, dated 2013)

Molecular target: T1, interaction between FVIII light chain and LRP cluster II (Homo sapiens, UniProt P00451)
T1 construct: Recombinant LRP clusters II or IV (1 pmol/well) were adsorbed onto microtiter wells; made in house; host or cells: LRP cluster II: BHK cells; FVIII light chain: plasma-derived
T1 sequence (P00451 1668-2351): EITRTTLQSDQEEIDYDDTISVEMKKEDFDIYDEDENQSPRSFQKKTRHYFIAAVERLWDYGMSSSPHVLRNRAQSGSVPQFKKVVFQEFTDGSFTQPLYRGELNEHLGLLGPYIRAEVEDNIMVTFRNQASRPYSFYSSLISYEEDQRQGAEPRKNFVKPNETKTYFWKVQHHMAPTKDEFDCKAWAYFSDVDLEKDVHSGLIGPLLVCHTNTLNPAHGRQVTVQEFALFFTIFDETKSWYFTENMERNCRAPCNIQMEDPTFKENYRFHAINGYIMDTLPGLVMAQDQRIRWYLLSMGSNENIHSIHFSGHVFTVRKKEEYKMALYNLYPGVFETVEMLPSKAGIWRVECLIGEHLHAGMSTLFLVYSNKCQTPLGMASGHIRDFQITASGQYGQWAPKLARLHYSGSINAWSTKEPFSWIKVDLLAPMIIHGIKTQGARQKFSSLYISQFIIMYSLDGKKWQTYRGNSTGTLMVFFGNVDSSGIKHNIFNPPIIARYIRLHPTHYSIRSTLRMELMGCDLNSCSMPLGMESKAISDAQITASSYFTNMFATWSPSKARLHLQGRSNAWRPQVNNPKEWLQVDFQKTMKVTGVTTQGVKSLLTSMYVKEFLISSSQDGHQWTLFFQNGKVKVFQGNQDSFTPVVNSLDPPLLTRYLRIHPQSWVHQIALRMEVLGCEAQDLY
Assay: Solid-phase competition: FVIII light chain binding to immobilized LRP cluster II
Conditions: FVIII light chain 25 nM
Method: FIG. 4. Effect of scFv antibody fragments on the interaction between FVIII light chain and LRP. A, FVIII light chain (LCh) (25 nM) was incubated with immobilized LRP cluster II (1 pmol/well) in a volume of 50 μl in 150 mM NaCl, 5 mM CaCl2, 1% (w/v) HSA, 0.1% Tween® 20, and 50 mM Tris (pH 7.4) in the presence of various concentrations (0-100 nM) of scFv KM41 (closed circles) or scFv KM36 (open circles) for 2 h at 37° C. After washing with the same buffer, bound FVIII light chain was quantified by incubation with peroxidase-conjugated anti-FVIII antibody CLB-CAg 12 for 15 min at 37° C. Residual binding is expressed as the percentage of binding in the absence of competitor and is corrected for nonspecific binding (less than 5% relative to binding to LRP cluster II-immobilized wells). Data represent the mean±S.D. of three experiments. B, FVIII light chain (50 nM) was incubated with immobilized LRP (16 fmol/mm^2) as described in the legend of FIG. 1. Binding was assessed in the absence (curve 1) or in the presence of increasing concentrations of scFv KM41 (20, 60, 300, 500 nM, curves 2-5, respectively). Complexes were allowed to form for 30 min before SPR analysis.
FIG. 5. Effect of scFv KM33 on the interaction between FVIII light chain and LRP. FVIII light chain (LCh) (25 nM) was incubated with immobilized LRP cluster II (1 pmol/well) in a volume of 50 μl in 150 mM NaCl, 5 mM CaCl2, 1% (w/v) HSA, 0.1% Tween® 20, and 50 mM Tris (pH 7.4) in the presence of various concentrations (0-30 nM) of scFv KM36 (open circles) or scFv KM33 (closed circles) for 2 h at 37° C. After washing with the same buffer, bound FVIII Light chain was quantified by incubation with peroxidase-conjugated anti-FVIII antibody CLB-CAg 12 for 15 min at 37° C. Residual binding is expressed as the percentage of binding in the absence of competitor and is corrected for nonspecific binding (less than 5% relative to binding to cluster-coated wells). Data represent the mean±S.D. of three experiments.
Recombinant LRP clusters II or IV (1 pmol/well) were adsorbed onto microtiter wells in 50 mM NaHCO3 (pH 9.8) in a volume of 50 μl for 16 h at 4° C. Wells were blocked with 2% (w/v) HSA, 150 mM NaCl, 5 mM CaCl2, and 50 mM Tris (pH 7.4) in a volume of 200 μl for 1 h at 37° C. After three rapid washes (less than 5 seconds each) with 150 mM NaCl, 5 mM CaCl2, 0.1% (v/v) Tween® 20, and 50 mM Tris (pH 7.4), FVIII light chain or its derivatives were incubated at various concentrations in a volume of 50 μl in a buffer containing 150 mM NaCl, 5 mM CaCl2, 1% (w/v) HSA, 0.1% (v/v) Tween® 20, and 50 mM Tris (pH 7.4) for 2 h. at 37° C. Bound ligand was detected by incubating with peroxidase-conjugated monoclonal antibody CLB-CAg 12 in the same buffer for 15 min at 37° C. […] In competition experiments, FVIII light chain (25 nM) was incubated with wells containing immobilized LRP clusters, either in the presence or absence of serial dilutions of competitor in a volume of 50 μl for 2 h at 37° C. Residual FVIII binding was detected as described above. Data were corrected for binding to empty microtiter wells, which was less than 5% relative to binding to wells containing immobilized LRP clusters.
(Note to Table II: Effect of FVIII a3-A3-C1 fragment derived synthetic peptides on the interaction between FVIII light chain and LRP cluster II. FVIII light chain (25 nM) was incubated with immobilized LRP cluster II (1 pmol/well) in a volume of 50 μl in 150 mM NaCl, 5 mM CaCl2, 1% (w/v) HSA, 0.1% Tween® 20, and 50 mM Tris (pH 7.4) in the presence or absence of various concentrations of synthetic peptide (0-1 mM) for 2 h at 37° C. After washing with the same buffer, bound FVIII light chain was quantified by incubation with peroxidase-conjugated anti-FVIII antibody CLB-CAg 12 for 15 min at 37° C. Half-maximum inhibition constants (IC50) represent the mean values±S.D. of three experiments.)

Effect on binding of FVIII light chain to immobilized LRP cluster II: inhibited the binding
B1: scFv KM41: scFv antibody fragment directed against FVIII region Arg^1803-Lys^1818 (protein)
scFv: QVQLLQSAADVKKPGASVKVSCTASGYIFTSYDIDWVRQATGQGLEWMGWMNPNSGNAGFAQKFKGRLTLTRDTSTSTAYMELRRLESEDTAVYYCARSTPHSYSGSGLPPTSDSWGQGTLVTVSSGGGGSGGGGSGGGGSEIVLTQSPGTLSLSPGERATLSCRASQSVSSSFLGWYQQKPGQAPRLLIYGASSRATGIPDRFSGSGSGTDFTLTISRLEPEDFAVYYCQQYGISPLTFGGGTKLEIKRAAAEQKLISEEDLNGAAHHHHHH
